Experimental data taken from paper PMC7280502, “Structure and mechanism of the Nap adhesion complex from the human pathogen Mycoplasma genitalium” (Nature Communications, 2020).

How the values were obtained:
[1] = target: P140–P110 heterodimer of the purified Nap complex (full-length proteins, P110His strain) (Mycoplasma genitalium G37 (endogenous) | Mycoplasma genitalium G37) (UniProt P20796); assay: cryo-EM structure; single-particle cryo-EM of the Nap complex purified from the M. genitalium P110His strain in octylglucoside, 25 μg/ml; 9.8 Å; rigid-body fitting of P140 alone and P110 alone; closed conformation
[2] = target: T1, extracellular region of P140 (residues 23–1351) (Mycoplasma genitalium (strain G37), UniProt P20796 23-1351); assay: crystal structure; P140 and P110N mixed 1:1 and incubated 30 min at room temperature; crystals from 23% PEG 500MME, 4% PGA, 0.1 M sodium cacodylate pH 6.5, 20 °C; space group P2(1), four heterodimers in the asymmetric unit; 2.65 Å; conditions: both partners purified
T1 construct: also called extracellular P140; source: E. coli B834 (DE3), purified (Histrap, Superdex 200), same protocol as for P110N
T1 sequence: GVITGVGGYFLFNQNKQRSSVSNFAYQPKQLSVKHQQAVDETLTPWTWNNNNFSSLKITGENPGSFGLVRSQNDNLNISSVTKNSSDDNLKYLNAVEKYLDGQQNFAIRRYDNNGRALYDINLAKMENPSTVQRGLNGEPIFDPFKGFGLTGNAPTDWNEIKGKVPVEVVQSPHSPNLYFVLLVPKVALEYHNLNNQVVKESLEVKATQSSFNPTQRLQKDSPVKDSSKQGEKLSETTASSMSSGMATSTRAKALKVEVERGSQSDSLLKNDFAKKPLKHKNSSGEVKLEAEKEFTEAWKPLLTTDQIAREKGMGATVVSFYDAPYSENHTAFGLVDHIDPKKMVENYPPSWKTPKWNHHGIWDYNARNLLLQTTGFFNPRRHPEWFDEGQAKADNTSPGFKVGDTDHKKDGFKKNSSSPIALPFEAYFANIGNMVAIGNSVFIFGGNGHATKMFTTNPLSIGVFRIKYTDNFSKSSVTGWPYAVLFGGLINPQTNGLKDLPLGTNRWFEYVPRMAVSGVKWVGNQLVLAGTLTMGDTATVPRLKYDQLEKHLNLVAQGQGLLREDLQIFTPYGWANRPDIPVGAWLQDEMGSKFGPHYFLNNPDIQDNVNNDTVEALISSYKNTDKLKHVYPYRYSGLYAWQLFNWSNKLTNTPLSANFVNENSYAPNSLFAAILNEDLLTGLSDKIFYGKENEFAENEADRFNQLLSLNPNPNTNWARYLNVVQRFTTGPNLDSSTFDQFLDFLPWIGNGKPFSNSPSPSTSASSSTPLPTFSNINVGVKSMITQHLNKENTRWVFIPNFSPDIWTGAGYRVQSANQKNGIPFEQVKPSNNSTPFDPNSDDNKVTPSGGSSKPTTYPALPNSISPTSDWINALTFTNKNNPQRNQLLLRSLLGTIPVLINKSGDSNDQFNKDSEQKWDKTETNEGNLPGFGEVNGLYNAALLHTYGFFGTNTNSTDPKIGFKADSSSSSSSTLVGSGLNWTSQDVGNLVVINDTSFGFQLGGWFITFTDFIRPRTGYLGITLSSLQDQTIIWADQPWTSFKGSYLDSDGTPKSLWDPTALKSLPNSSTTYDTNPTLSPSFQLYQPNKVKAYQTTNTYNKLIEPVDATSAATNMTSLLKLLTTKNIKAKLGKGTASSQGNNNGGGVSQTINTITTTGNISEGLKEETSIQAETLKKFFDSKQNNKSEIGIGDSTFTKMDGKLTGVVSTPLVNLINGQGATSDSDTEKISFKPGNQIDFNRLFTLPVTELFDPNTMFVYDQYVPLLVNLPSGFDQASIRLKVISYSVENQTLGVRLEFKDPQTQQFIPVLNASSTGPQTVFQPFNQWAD

[3] = target: T1, extracellular region of P140 (residues …); assay: cryo-EM structure; single-particle cryo-EM of the purified P140–P110 heterodimer (complete extracellular regions) at 20 μg/ml; 4.1 Å, non-isotropic; X-ray P140–P110N structure fitted as a rigid body; conditions: both partners purified

Q: “P140–P110 heterodimer of the purified Nap complex (full-length proteins, P110His strain), P20796 59-1444; P22747 26-1053” was tested. Which stoichiometry N [1] did it give?
A: The stoichiometry N was 2.

B1: N-terminal domain of P110 (P110N: residues 23–827) (domain or fragment)
chain: ALANTFLVKEDSKNVTAYTPFATPITDSKSDLVSLAQLDSSYQIADQTIHNTNLFVLFKSRDVKVKYESSGSNNISFDSTSQGEKPSYVVEFTNSTNIGIKWTMVKKYQLDVPNVSSDMNQVLKNLILEQPLTKYTLNSSLAKEKGKTQREVHLGSGQANQWTSQRNQHDLNNNPSPNASTGFKLTTGNAYRKLSESWPIYEPIDGTKQGKGKDSSGWSSTEENEAKNDAPSVSGGGSSSGTFNKYLNTKQALESIGILFDDQTPRNVITQLYYASTSKLAVTNNHIVVMGNSFLPSMWYWVVERSAQENASNKPTWFANTNLDWGEDKQKQFVENQLGYKETTSTNSHNFHSKSFTQPAYLISGIDSVNDQIIFSGFKAGSVGYDSSSSSSSSSSSSTKDQALAWSTTTSLDSKTGYKDLVTNDTGLNGPINGSFSIQDTFSFVVPYSGNHTNNGTTGPIKTAYPVKKDQKSTVKINSLINATPLNSYGDEGIGVFDALGLNYNFKSNQERLPSRTDQIFVYGIVSPNELRSAKSSADSTGSDTKVNWSNTQSRYLPVPYNYSEGIIDADGFKRPENRGASVTTFSGLKSIAPDGFANSIANFSVGLKAGIDPNPVMSGKKANYGAVVLTRGGVVRLNFNPGNDSLLSTTDNNIAPISFSFTPFTAAESAVDLTTFKEVTYNQESGLWSYIFDSSLKPSHDGKQTPVTDNMGFSVITVSRTGIELNQDQATTTLDVAPSALAVQSGIQSTTQTLTGVLPLSEEFSAVIAKDSDQNKIDIYKNNNGLFEIDTQLSNSVATNNGGL
notes: P110, product of gene MG_192 of Mycoplasma genitalium strain G37, residues 23–827 (N-terminal domain), amplified from a synthetic clone and cloned into pOPINE; source: E. coli B834 (DE3), purified (Histrap, Superdex 200)
Q: Does B1 bind [2]?
A: Result: binds

B2: extracellular region of P110 (residues 23–938) (domain or fragment)
chain: ALANTFLVKEDSKNVTAYTPFATPITDSKSDLVSLAQLDSSYQIADQTIHNTNLFVLFKSRDVKVKYESSGSNNISFDSTSQGEKPSYVVEFTNSTNIGIKWTMVKKYQLDVPNVSSDMNQVLKNLILEQPLTKYTLNSSLAKEKGKTQREVHLGSGQANQWTSQRNQHDLNNNPSPNASTGFKLTTGNAYRKLSESWPIYEPIDGTKQGKGKDSSGWSSTEENEAKNDAPSVSGGGSSSGTFNKYLNTKQALESIGILFDDQTPRNVITQLYYASTSKLAVTNNHIVVMGNSFLPSMWYWVVERSAQENASNKPTWFANTNLDWGEDKQKQFVENQLGYKETTSTNSHNFHSKSFTQPAYLISGIDSVNDQIIFSGFKAGSVGYDSSSSSSSSSSSSTKDQALAWSTTTSLDSKTGYKDLVTNDTGLNGPINGSFSIQDTFSFVVPYSGNHTNNGTTGPIKTAYPVKKDQKSTVKINSLINATPLNSYGDEGIGVFDALGLNYNFKSNQERLPSRTDQIFVYGIVSPNELRSAKSSADSTGSDTKVNWSNTQSRYLPVPYNYSEGIIDADGFKRPENRGASVTTFSGLKSIAPDGFANSIANFSVGLKAGIDPNPVMSGKKANYGAVVLTRGGVVRLNFNPGNDSLLSTTDNNIAPISFSFTPFTAAESAVDLTTFKEVTYNQESGLWSYIFDSSLKPSHDGKQTPVTDNMGFSVITVSRTGIELNQDQATTTLDVAPSALAVQSGIQSTTQTLTGVLPLSEEFSAVIAKDSDQNKIDIYKNNNGLFEIDTQLSNSVATNNGGLAPSYTENRVDAWGKVEFADNSVLQARNLVDKTVDEIINTPEILNSFFRFTPAFEDQKATLVATKQSDTSLSVSPRIQFLDGNFYDLNSTIAGVPLNIGFPSRVFAGFAALP
notes: P110, product of gene MG_192 of Mycoplasma genitalium strain G37, residues 23–938 (complete extracellular region), amplified from a synthetic clone; source: E. coli B834 (DE3), purified (Histrap, Superdex 200), same protocol as for P110N
Q: Does B2 bind [3]?
A: Result: binds
